This experiment has as its target OXA-23-type carbapenemase (UniProt Q9L4P2). Put plainly: indirect ELISA, plate coated with OXA-23-type carbapenemase at 0.2 ug/mL, serial dilution of purified antibody from 1:1,000. As to conditions: scale: dilution factor. (An ELISA detects its analyte on a solid surface through an enzyme-linked reagent.)
Chain of UniProt Q9L4P2 (Q9L4P2 18-273 limits assumed): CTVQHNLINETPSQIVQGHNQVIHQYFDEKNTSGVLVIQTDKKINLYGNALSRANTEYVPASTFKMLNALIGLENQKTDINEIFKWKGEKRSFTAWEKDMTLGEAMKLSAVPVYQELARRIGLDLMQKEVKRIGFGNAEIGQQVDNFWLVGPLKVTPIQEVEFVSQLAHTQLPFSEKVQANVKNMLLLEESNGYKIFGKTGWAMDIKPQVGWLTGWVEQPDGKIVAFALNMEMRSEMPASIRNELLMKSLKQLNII

B1: antibody HB12 (antibody, V domains shown)
VH: VQLQQSGAELVKPGASVKLSCKTSGYTFTSYWMYWVKQRPGQGLEWIGEIYPTNGRTNYNEKFKTKATLTVDKSSSTAYMQLSSLTSEDSAVYYCAIYYYGSYAMDYWGQGTSVTVSS
VL: DIVMTQSHKFMSTSVGDRVSITCKASQDVSIAVAWFQQKPGQSPKLLIYWASTRHTGVPDRFTGSGSGTDYTLTISSVQAEDLALYYCQQHYSTPYLFGGGTKLEIKR
For the molecule B1, the titer was > 640000.

B2: antibody FA2 (antibody, V domains shown)
VH: VQLKQSGPGLVQPSQSLSITCTVSGFSLTSYGVHWVRRSPGKGLEWLGVIWRGGNTDYNAAFMSRLSITKDNSKSQVFFKMTSLQGDDTAIYSCVKSLTTSTFDYWGQGTLVTVSS
VL: DIVMTQSHKLMSTSVGDRVSITCKGSQDVRTAVAWYQQKPGQSPNLLIYWASTRHTGVPDRFTGSGSGTDYILTITSVQAEDLALYYCQQHYSIPYTFGGGTKLEIKR
Regarding B2, the titer is > 640000.

The values are drawn from patent EP4063498B1.
